From the supplement of paper PMC7125110
± gives the standard error. Variants at the floor of the assay were thinned out.

B1: glmS ribozyme (parent)
chain: AUAAAAGCGCCAGAACUACAGAAAUGUAGUUGACGAGGAGGAGGUUUAUCGAAUUUUCGGCGGAUGCCUCCAAA

Tests used:
Conditions in all cases: with glucosamine-6-phosphate
glucosamine-6-phosphate [1] = variants of: B1; experiment: self-cleavage kobs at 40 uM GlcN6P; higher = faster cleavage; RNA array
Procedure, shortened: (§1)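 A hybridised Cy3 probe tracked barcoded ribozyme variants, transcribed in situ by E. coli RNA polymerase on sequenced MiSeq chips, at 37 °C. The variants received 40 μM to 10 mM glucosamine-6-phosphate in HEPES/KCl/Mg(OAc)2 buffer. kobs came from decay fits and kcat and KM from weighted Michaelis–Menten fits.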

glucosamine-6-phosphate [2] = variants of: B1; experiment: self-cleavage kobs at 160 uM GlcN6P; higher = faster cleavage; RNA array
Procedure, shortened: as §1

glucosamine-6-phosphate [3] = variants of: B1; experiment: self-cleavage kobs at 2500 uM GlcN6P; higher = faster cleavage; RNA array
Procedure, shortened: as §1

glucosamine-6-phosphate [4] = variants of: B1; experiment: self-cleavage kobs at 10000 uM GlcN6P; higher = faster cleavage; RNA array
Procedure, shortened: as §1

glucosamine-6-phosphate [5] = variants of: B1; experiment: self-cleavage kobs at 640 uM GlcN6P; higher = faster cleavage; RNA array
Procedure, shortened: as §1

Variant	self-cleavage kobs at 40 uM GlcN6P (glucosamine-6-phosphate [1]) [s⁻¹]	self-cleavage kobs at 160 uM GlcN6P (glucosamine-6-phosphate [2]) [s⁻¹]	self-cleavage kobs at 2500 uM GlcN6P (glucosamine-6-phosphate [3]) [s⁻¹]	self-cleavage kobs at 10000 uM GlcN6P (glucosamine-6-phosphate [4]) [s⁻¹]	self-cleavage kobs at 640 uM GlcN6P (glucosamine-6-phosphate [5]) [s⁻¹]
AUAAAAGCGCCAGAACUACAGAAAUGUAGUUGACGAGGAGGAGGUUUGUCCAAUUUUCGGCGGAUGCCUCCAAA	< 1e-05	< 1e-05	< 1e-05	< 1e-05	–
AUAAAAGCGCCAGAACUACAGAAAUGUAGUUGACGAGGAGGAGGUUUCUCGAAUUUUCGGUGGAUGGCUCCAAA	< 1e-05	–	–	< 1e-05	< 1e-05
AUAAAAGCGCCAGAACUACAGAAAUGUAGUUGACGAGGAGGAGGUUUAACGCAUUUUCGGCGGAUGCCUCCAAA	< 1e-05	< 1e-05	–	< 1e-05	< 1e-05
AUAAAAGCGCCAGAACUACAGAAAUGUAGUUGACGAGGAGGAGGUUGAUCGAAUUAUUGGCGGGUGCCAACAAA	5.21e-05 ± 2.2e-05	–	–	3.66e-05 ± 1.4e-05	–
AUAAAAGCGCCAGAACUACAGAAAUGUAGUUGACGAGGAGGAGGUUGAGGAAAUUUUCGGAGGAUGCCUCCAAA	9.02e-05 ± 2.3e-05	–	–	0.000142 ± 3.3e-05	–
AUAAAAGCGCCAGAACUACAGAAAUGUAGUUGACGAGGAGGAGGUUUCUCGAAUUUUCGGCGGUUGCCUCCAAA	< 1e-05	< 1e-05	–	–	< 1e-05
AUAAAAGCGCCAGAACUACAGAAAUGUAGUUGACGAGGAGGAGGUUUUUCGAAUUUUCGGCGGAUCCCUCCAAA	< 1e-05	< 1e-05	–	–	–
AUAAAAGCGCCAGAACUACAGAAAUGUAGUUGACGAGGAGGAGGUUUGUCGAGUUUUCGGCGGAUGCGUCCAAA	6.75e-05 ± 2.2e-05	–	–	5.82e-05 ± 1.7e-05	–
AUAAAAGCGCCAGAACUACAGAAAUGUAGUUGACGAGGAGGAGGUUUCUCUAAUUUUCGGCGGAUGUCUCCAAA	< 1e-05	–	–	< 1e-05	–
AUAAAAGCGCCAGAACUACAGAAAUGUAGUUGACGAGGAGGAGGUUUCUCGAAUUUUCUGCGGAUGCCUCCAAA	< 1e-05	< 1e-05	< 1e-05	< 1e-05	< 1e-05
AUAAAAGCGCCAGAACUACAGAAAUGUAGUUGACGAGGAGGAGGUUUCUCGAAUUUUCAGCGGAUGCCUCCAAA	< 1e-05	< 1e-05	< 1e-05	< 1e-05	< 1e-05
AUAAAAGCGCCAGAACUACAGAAAUGUAGUUGACGAGGAGGAGGUUUCCCGAAUUUUCGGGGGAUGCCUCCAAA	< 1e-05	< 1e-05	< 1e-05	< 1e-05	–
AUAAAAGCGCCAGAACUACAGAAAUGUAGUUGACGAGGAGGAGGUUUUUCGAAUUUUCGGCGGCUGCCUCCAAA	< 1e-05	< 1e-05	–	–	< 1e-05
AUAAAAGCGCCAGAACUACAGAAAUGUAGUUGACGAGGAGGAGGUUUGUCGAAUUUUCGGCGGAAGCAUCCAAA	0.000357 ± 0.00011	–	–	0.000113 ± 3.1e-05	–
AUAAAAGCGCCAGAACUACAGAAAUGUAGUUGACGAGGAGGAGGUUUGUCGGAUUUUUGGCGGAUGCCUCCAAA	< 1e-05	–	–	–	–
AUAAAAGCGCCAGAACUACAGAAAUGUAGUUGACGAGGAGGAGGUUUUUCGAAUGUUCGGCCGAUGCCUCCAAA	< 1e-05	–	–	< 1e-05	< 1e-05
AUAAAAGCGCCAGAACUACAGAAAUGUAGUUGACGAGGAGGAGGUUUUUCGAAUUUUCGGCGAAUGCCUCCAAA	< 1e-05	–	< 1e-05	< 1e-05	< 1e-05
AUAAAAGCGCCAGAACUACAGAAAUGUAGUUGACGAGGAGGAGGUUUCUCGCAUUUUCGGCGGAUGCCUCCAAA	< 1e-05	< 1e-05	< 1e-05	< 1e-05	< 1e-05
AUAAAAGCGCCAGAACUACAGAAAUGUAGUUGACGAGGAGGAGGUUUCUCGAAUUUUCGGCGGAGGCCUCCAAA	< 1e-05	< 1e-05	–	–	–
AUAAAAGCGCCAGAACUACAGAAAUGUAGUUGACGAGGAGGAGGUUUUUCGAAUUUUCGGAGGAUGCCUCCAAA	< 1e-05	< 1e-05	–	< 1e-05	–
AUAAAAGCGCCAGAACUACAGAAAUGUAGUUGACGAGGAGGAGGUUUCUCGAAUUUUCGGCAGAUGCCUCCAAA	< 1e-05	< 1e-05	< 1e-05	< 1e-05	< 1e-05
AUAAAAGCGCCAGAACUACAGAAAUGUAGUUGACGAGGAGGAGGUUGAUCGAAUUGUCGGCGGAUGCCUACAAA	7.34e-05 ± 2.5e-05	0.000192 ± 3.8e-05	7.39e-05 ± 1.8e-05	6.01e-05 ± 1.4e-05	6.47e-05 ± 1.3e-05
AUAAAAGCGCCAGAACUACAGAAAUGUAGUUGACGAGGAGGAGGUUUGUAGAAUUUUCGGCGGAUGCCUCCAAA	< 1e-05	< 1e-05	< 1e-05	–	< 1e-05
